# Test results from US20260184777A1 (BEIJING SUNGEN BIOMEDICAL TECHNOLOGY, published 2026).
# T1: human S100A8/A9 heterodimeric antigen, His-tagged (hS100A8/A9-His) (human, UniProt P05109 1-93; P06702 1-114)
# T1 sequence 1: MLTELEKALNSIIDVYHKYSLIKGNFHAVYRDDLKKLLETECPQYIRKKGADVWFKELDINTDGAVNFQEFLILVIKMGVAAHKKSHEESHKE
# T1 sequence 2: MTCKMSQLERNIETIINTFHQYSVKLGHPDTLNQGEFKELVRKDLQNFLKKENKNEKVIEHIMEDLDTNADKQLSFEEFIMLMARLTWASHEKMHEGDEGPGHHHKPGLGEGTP
# T2: S100A1 (human, UniProt P23297 1-94)
# T2 sequence (looked up): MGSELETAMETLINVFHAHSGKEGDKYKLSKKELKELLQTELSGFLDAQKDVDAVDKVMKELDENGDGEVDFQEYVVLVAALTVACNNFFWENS
# B1: Anti-S100A8/A9 monoclonal antibody (antibody, human IgG4 S228P, lambda, V domains shown)
# VH: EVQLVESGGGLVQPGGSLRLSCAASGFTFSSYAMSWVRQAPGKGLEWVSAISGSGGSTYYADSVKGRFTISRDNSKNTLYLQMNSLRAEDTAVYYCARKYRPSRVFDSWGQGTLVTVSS
# VL: SYELTQPPSVSVAPGQTARITCSGDALGDKYASWYQQKPGQAPVLVIYEDSKRPSGIPERFSGSNSGNTATLTISGTQAEDEADYYCQSNDADSVWVFGGGTKLTVLG
# notes: also called CM-1; parental antibody
# Tests used:
# [1] = target: T1, human S100A8/A9 heterodimeric antigen, …
# [2] = target: monkey S100A8/A9 heterodimeric antigen (cS100A8/A9) (monkey)
# plague = plague (UniProt P26948 22-170)
# plague, sequence (P26948 22-170): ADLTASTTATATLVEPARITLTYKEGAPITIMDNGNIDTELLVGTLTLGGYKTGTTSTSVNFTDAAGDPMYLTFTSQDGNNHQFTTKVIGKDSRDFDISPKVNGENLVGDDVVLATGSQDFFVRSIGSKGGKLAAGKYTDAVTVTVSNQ
# S100A1 = target: T2, S100A1
binder,measurement,setting,value
B1,Kd,[1],8.95 nM
same,Kd,[2],22.8 nM
same,binding result,plague,no binding (tested: 20 µg/mL)
same,binding result,S100A1,no binding (tested: 20 µg/mL)
